How the values were obtained:
Assay in all cases: cell-based or functional assay
[1] = molecular target: HIV-1 envelope (Env) of virus CAP45.2.00.G3 (HIV-1)
[2] = molecular target: HIV-1 envelope (Env) of virus CNE20 (HIV-1)
[3] = molecular target: HIV-1 envelope (Env) of virus REJO4541.67 (HIV-1)
[4] = molecular target: HIV-1 envelope (Env) of virus WITO4160.33 (HIV-1)
[5] = molecular target: HIV-1 envelope (Env) of virus AC10.0.29 (HIV-1)
[6] = molecular target: HIV-1 envelope (Env) of virus DU172.17 (HIV-1)

Row | Binder | IC50 of viral neutralization (Env.IMC.LucR virus, TZM-BL reporter cells) [1] | IC50 of viral neutralization (Env.IMC.LucR virus, TZM-BL reporter cells) [2] | IC50 of viral neutralization (Env.IMC.LucR virus, TZM-BL reporter cells) [3] | IC50 of viral neutralization (Env.IMC.LucR virus, TZM-BL reporter cells) [4] | IC50 of viral neutralization (Env.IMC.LucR virus, TZM-BL reporter cells) [5] | IC50 of viral neutralization (Env.IMC.LucR virus, TZM-BL reporter cells) [6]
1 | NVS49-L2A1 (antibody, V domains shown) VH: HVQLVQSGGGVKKIGAAVRISCEVTGYKFMDQLINWVRQAPGQGLEWMGWMNPTYGQVNYSWRFEGRVTMTRDMDTETAFMELRGLRVDDTAVYYCARGPSGENYPFHYWGQGVRVVVSS VL: ASALTQPASMSASPGQSVTISCSGTRHIISAWFQQYPGKPPKLIIFDDDKRPSGVPSRFSASRPGDTASLTISNVQPEDEATYICNTYEFFGGGTRLTVL | 0.069 µg/mL | 0.05 µg/mL | 0.022 µg/mL | 0.213 µg/mL | 0.306 µg/mL | 0.128 µg/mL
2 | L2A1_H58NS (antibody, V domains shown) VH: HVQLVQSGGGVKKIGAAVRISCEVTGYKFMDQLINWVRQAPGQGLEWMGWMNPTYGQVSYSWRFEGRVTMTRDMDTETAFMELRGLRVDDTAVYYCARGPSGENYPFHYWGQGVRVVVSS VL: ASALTQPASMSASPGQSVTISCSGTRHIISAWFQQYPGKPPKLIIFDDDKRPSGVPSRFSASRPGDTASLTISNVQPEDEATYICNTYEFFGGGTRLTVL | 0.04 µg/mL | > 50 µg/mL | 0.206 µg/mL | 0.182 µg/mL | 0.091 µg/mL | 0.102 µg/mL
3 | L2A1_H58NQ (antibody, V domains shown) VH: HVQLVQSGGGVKKIGAAVRISCEVTGYKFMDQLINWVRQAPGQGLEWMGWMNPTYGQVQYSWRFEGRVTMTRDMDTETAFMELRGLRVDDTAVYYCARGPSGENYPFHYWGQGVRVVVSS VL: ASALTQPASMSASPGQSVTISCSGTRHIISAWFQQYPGKPPKLIIFDDDKRPSGVPSRFSASRPGDTASLTISNVQPEDEATYICNTYEFFGGGTRLTVL | – | > 50 µg/mL | 0.025 µg/mL | 0.222 µg/mL | > 50 µg/mL | 2.27 µg/mL
4 | L2A1_H60SA (antibody, V domains shown) VH: HVQLVQSGGGVKKIGAAVRISCEVTGYKFMDQLINWVRQAPGQGLEWMGWMNPTYGQVNYAWRFEGRVTMTRDMDTETAFMELRGLRVDDTAVYYCARGPSGENYPFHYWGQGVRVVVSS VL: ASALTQPASMSASPGQSVTISCSGTRHIISAWFQQYPGKPPKLIIFDDDKRPSGVPSRFSASRPGDTASLTISNVQPEDEATYICNTYEFFGGGTRLTVL | 0.039 µg/mL | 0.17 µg/mL | 0.105 µg/mL | 0.148 µg/mL | 0.072 µg/mL | 0.056 µg/mL
5 | L2A1_H58ND (antibody, V domains shown) VH: HVQLVQSGGGVKKIGAAVRISCEVTGYKFMDQLINWVRQAPGQGLEWMGWMNPTYGQVDYSWRFEGRVTMTRDMDTETAFMELRGLRVDDTAVYYCARGPSGENYPFHYWGQGVRVVVSS VL: ASALTQPASMSASPGQSVTISCSGTRHIISAWFQQYPGKPPKLIIFDDDKRPSGVPSRFSASRPGDTASLTISNVQPEDEATYICNTYEFFGGGTRLTVL | – | > 50 µg/mL | 0.212 µg/mL | 0.65 µg/mL | > 50 µg/mL | 20.9 µg/mL
6 | L2A1_H60SN (antibody, V domains shown) VH: HVQLVQSGGGVKKIGAAVRISCEVTGYKFMDQLINWVRQAPGQGLEWMGWMNPTYGQVNYNWRFEGRVTMTRDMDTETAFMELRGLRVDDTAVYYCARGPSGENYPFHYWGQGVRVVVSS VL: ASALTQPASMSASPGQSVTISCSGTRHIISAWFQQYPGKPPKLIIFDDDKRPSGVPSRFSASRPGDTASLTISNVQPEDEATYICNTYEFFGGGTRLTVL | 0.032 µg/mL | 0.317 µg/mL | 0.121 µg/mL | 0.212 µg/mL | 0.087 µg/mL | 0.044 µg/mL
7 | L2A1_H58NA (antibody, V domains shown) VH: HVQLVQSGGGVKKIGAAVRISCEVTGYKFMDQLINWVRQAPGQGLEWMGWMNPTYGQVAYSWRFEGRVTMTRDMDTETAFMELRGLRVDDTAVYYCARGPSGENYPFHYWGQGVRVVVSS VL: ASALTQPASMSASPGQSVTISCSGTRHIISAWFQQYPGKPPKLIIFDDDKRPSGVPSRFSASRPGDTASLTISNVQPEDEATYICNTYEFFGGGTRLTVL | 0.05 µg/mL | > 50 µg/mL | 0.104 µg/mL | 0.259 µg/mL | 0.098 µg/mL | 0.218 µg/mL
